Laboratory results published in US20230192853A1 (Genentech, published 2023).
Residue numbers refer to the chain shown, from its start. Numbers in names are those of the source.

Tests used:
[1] = target: T1, rhesus monkey CD8 in CD8-rich tissues (in vivo) (rhesus monkey, UniProt P01732 23-235 (human entry)); assay: PET imaging in rhesus monkey
T1 construct: the target was seen by PET in lymph nodes, thymus and spleen; also called rhesus CD8
Protocol: Imaging experiments were performed with ¹⁸F-anti-CD8 VHH in a rhesus monkey to determine whether uptake could be detected in tissues that are normally CD8-rich. A rhesus monkey (2.5 kg) was injected with 64 micrograms ¹⁸F-anti-CD8 VHH containing a 1.2 mCi radiation dose.

[2] = target: T2, human CD8 on cells (HPBALL cells, TALL1 cells, CD8+ T cells of human whole blood and PBMCs) (human, UniProt P01732 22-234); assay: PET MIP of TALL1 tumor xenografted mice
T2 construct: also called huCD8
T2 sequence (P01732 22-234 limits assumed): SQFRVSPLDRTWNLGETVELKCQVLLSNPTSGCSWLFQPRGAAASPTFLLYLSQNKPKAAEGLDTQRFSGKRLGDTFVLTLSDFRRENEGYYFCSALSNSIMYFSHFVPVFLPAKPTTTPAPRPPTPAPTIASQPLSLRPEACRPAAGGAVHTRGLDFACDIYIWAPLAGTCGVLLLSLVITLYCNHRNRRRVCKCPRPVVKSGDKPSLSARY

[3] = target: T3, huCD8a-Fc (C-terminal hFc-tagged human CD8α receptor) (human, UniProt P01732 22-182); assay: SPR
T3 construct: the whole entry is named; also called CD8α-Fc; CD8α-hFc; not shown: human Fc tag at the C-terminus
T3 sequence (P01732 22-182 limits assumed): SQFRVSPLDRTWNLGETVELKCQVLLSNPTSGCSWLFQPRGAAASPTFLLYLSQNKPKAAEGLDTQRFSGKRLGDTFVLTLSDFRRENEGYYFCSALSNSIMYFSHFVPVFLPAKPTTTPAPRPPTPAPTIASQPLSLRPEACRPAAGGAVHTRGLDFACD

[4] = target: T4, one-armed single chain cynoCD8α/cynoCD8β-Fc (cynomolgus monkey); assay: SPR, Biacore T200, 37°C, CD8αβ-Fc captured, VHH as analyte
T4 construct: the whole entry is named; also called Cyno CD8αβ; CD8αβ-Fc; not shown: linker between CD8α and CD8β; not described; one polypeptide chain of an Fc (captured with an anti-HuIgG1 Fc kit); second Fc chain without fusion (one-armed format)
T4 sequence (P01732 other isoform, or with tags, fused parts or gaps): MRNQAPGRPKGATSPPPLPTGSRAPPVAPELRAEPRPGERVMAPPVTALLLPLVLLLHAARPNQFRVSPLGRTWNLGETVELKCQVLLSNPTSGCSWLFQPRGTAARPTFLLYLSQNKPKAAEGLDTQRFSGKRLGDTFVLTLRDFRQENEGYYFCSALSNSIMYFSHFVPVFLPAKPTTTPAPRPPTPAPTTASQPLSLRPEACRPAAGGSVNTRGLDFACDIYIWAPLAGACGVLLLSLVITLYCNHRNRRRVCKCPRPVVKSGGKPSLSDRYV
Protocol: (§1) The binding affinity for each VHH variant to both human (a one-armed single chain huCD8α/huCD8β-Fc) and cynomolgus monkey (a one-armed single chain cynoCD8α/cynoCD8β-Fc) were determined by Surface Plasmon Resonance (SPR). SPR experiments were carried out on the Biacore T200 (GE Healthcare) at 37° C. using HBS-P+ (GE Healthcare) running buffer. 1.5 μg/mL of CD8αβ-Fc was captured using an anti-HuIgG1 Fc capture kit (GE Healthcare) and monomeric VHHs were added as the analyte in solution at a flow rate of 100 μL/min. The VHH was titrated using a dilution series from 100-0 nM. Sensorgrams were fit to a 1:1 Langmuir model to identify kinetic parameters, including KD, kₒₙ and koff.

[5] = target: T5, one-armed single chain huCD8α/huCD8β-Fc (human, UniProt P10966 22-170); assay: as above
T5 construct: the whole entry is named; also called Human CD8αβ; CD8αβ-Fc; not shown: linker between CD8α and CD8β; not described; one polypeptide chain of an Fc (captured with an anti-HuIgG1 Fc kit); second Fc chain without fusion (one-armed format)
T5 sequence (P10966 other isoform, or with tags, fused parts or gaps): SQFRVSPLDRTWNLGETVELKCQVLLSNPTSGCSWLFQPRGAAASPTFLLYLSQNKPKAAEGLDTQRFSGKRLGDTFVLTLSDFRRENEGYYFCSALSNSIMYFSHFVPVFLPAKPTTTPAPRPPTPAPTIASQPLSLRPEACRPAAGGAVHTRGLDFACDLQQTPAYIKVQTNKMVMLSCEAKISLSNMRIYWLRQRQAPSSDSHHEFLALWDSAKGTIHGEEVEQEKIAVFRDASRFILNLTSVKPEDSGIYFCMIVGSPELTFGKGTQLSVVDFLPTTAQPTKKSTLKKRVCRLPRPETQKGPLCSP
Protocol: as §1

[6] = target: T5, one-armed single chain huCD8α/huCD8β-Fc; assay: affinity measurement, method not named in the sentence (SPR per paragraph 284)

T1 sequence (P01732 other isoform, or with tags, fused parts or gaps limits assumed): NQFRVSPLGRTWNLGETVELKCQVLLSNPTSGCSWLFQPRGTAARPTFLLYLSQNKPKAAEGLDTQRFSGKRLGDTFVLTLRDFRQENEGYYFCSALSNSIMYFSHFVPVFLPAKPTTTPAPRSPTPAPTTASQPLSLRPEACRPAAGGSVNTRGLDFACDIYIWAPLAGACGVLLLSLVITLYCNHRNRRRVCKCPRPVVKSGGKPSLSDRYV

B1: 18F-control VHH (18F-AlF-RESCA-modified 2C8v145) (VHH)
VHH: EVQLVESGGGLVQPGGSLRLSCAASGFTFDDYAIGWFRQAPGKGREGVACIRIFDRHTYYADSVKGRFTISSDNSKNTVYLQMNSLRAEDTATYYCAAGFFSGCTRPEGDMDYFGQGTLVQVQS
modifications: RESCA chelator (Formula (I)) carrying [18F]-aluminum fluoride; site not stated
binding result [1]: no binding | binding result [2]: no binding

B2: 2C8 VHH (llama anti-CD8 VHH wt2C8) (VHH)
VHH: EVQLVESGGGLVQAGGSLRLSCAASGFTFDDYAIGWFRQAPGKGREGVLCIRIFDRHTYSADSVKGRFTISSDNAQNTVYLHMNSLKPEDTAVYYCAAGSFWACTRPEGAMDYWGKGTQVTVSS
notes: Monomeric VHH; VHHs were made both with a C-terminal His tag and tagless; also called 2C8.1-H; wild-type 2C8
binding result [3]: binds

B3: 2C8v142 VHH (VHH)
VHH: B1 VHH with A33V, F100S, S102F
notes: also called hu2C8v142
Kd [4]: 0.344 nM | koff [4]: 0.0037 s⁻¹ | kon [4]: 1.09e+07 M⁻¹ s⁻¹ | Kd [5]: 0.132 nM | koff [5]: 0.00176 s⁻¹ | kon [5]: 1.34e+07 M⁻¹ s⁻¹

B4: 2C8v144 VHH (VHH)
VHH: B1 VHH with F100S, S102W
notes: also called hu2C8v144
Kd [4]: 0.137 nM | koff [4]: 0.0019 s⁻¹ | kon [4]: 1.39e+07 M⁻¹ s⁻¹ | Kd [5]: 0.0497 nM | koff [5]: 0.000845 s⁻¹ | kon [5]: 1.7e+07 M⁻¹ s⁻¹

B5: 2C8 with the A99G and A100fD mutations (VHH, name in Kabat numbering)
VHH: B2 VHH with A103G, A110D
fold improvement of affinity against the parental clone 2C8 [6]: ~10 fold
